The results in this text go back to paper PMC10698194.

The target in the assay is mouse KOR-EGFP (mouse) (UniProt P33534).
Sequence of mouse KOR-EGFP (mouse) (P33534 whole entry): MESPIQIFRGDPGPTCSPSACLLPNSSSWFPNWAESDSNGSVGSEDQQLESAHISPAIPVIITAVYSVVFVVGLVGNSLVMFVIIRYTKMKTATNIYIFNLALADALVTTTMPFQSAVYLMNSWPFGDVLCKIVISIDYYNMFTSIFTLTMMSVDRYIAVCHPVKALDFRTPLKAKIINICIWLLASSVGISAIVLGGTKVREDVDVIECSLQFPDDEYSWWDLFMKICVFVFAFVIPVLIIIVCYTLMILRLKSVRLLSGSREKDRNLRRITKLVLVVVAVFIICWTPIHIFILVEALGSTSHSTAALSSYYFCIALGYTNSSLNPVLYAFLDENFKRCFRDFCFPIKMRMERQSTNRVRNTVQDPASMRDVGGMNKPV

Substance dynorphin (dyn) A_(1-13) (peptide) returned a β-arrestin-2 recruitment (BRET), EC50 of 31 nM.
